Experimental data: publication PMC9516341

Target: Flag-tagged ARNO (p3XFLAG-2-mCytohesin-2)
Experiment: co-immunoprecipitation (anti-FLAG M2 IP of FLAG-ARNO, immunoblot for FE65, quantified)
Conditions: transfected cell lysate; three independent experiments; unpaired t-test, *p < 0.001; parent: 1

“Myc-tagged FE65 (from UniProt O00213) R605A” gave a ratio to parent of 0.34.
